Experimental data as given in patent US20250027068.
Residue numbers refer to the chain shown, from its start.

B1: PRT-535 (protein)
chain: MANQEIRYSGDSEWANKKVWVYGITPPEEKAWFYSTYYLPWKKEYGWYDCNKRNPTADGMMCWAATASNLMHWWIAQNKEYIDLYGDKYKGPDKINFNGEQMFDVKEYIDPLDKPQESDIFQCFIDKAFADLSTKHEAGKGDEGINWFIHGIIPSYPAHGPTPVKLRYPYNPAGYFKDVFPRGDGVVLLGNNGDFKELGKERFNETIKDALANKKGIGLSIGPVNVRSSHVVTMWGAEFDENGDVSYIYMADNNDRWGVGCIRYQIVYVEGGTYTCYKTEIIGSDRPIPINRLVTLELGEEYWKQTNLEHHHHHH
B2: PRT-537 (protein)
chain: B1 chain with G10S, K30G, T66S, M71L, A128S, E143A, Y156S, M234I, V269E, G283P
B3: PRT-569 (protein)
chain: MANQEIRYSKATPSHITSVWTKGVTPPEQFIYNEDVLHAPYIANQGWYDITKTFNGKDDLLCGAATAGNMLHWWFDQNKEQIENYLKKHPEKQKINFNGEQMFDVKEAIDTKDSQTNSALFSYFKDKAFPYLSTKHLGVFPDHVIDMFINGYRLSLTNHGPTPVKEQTKDPRGGIFDAVFTRGDQSKLLTSRHDFKEKTLNEISQLIKQELTEGKALGLSHTYANVRINHVINLWGADFNAEGNLEAIYVTDSDSNASIGMKKYYVGVNSAGKVAISAKEIEGDNIGAQVLGLFTLSTGQDIWQQTNLEHHHHHH
B4: PRT-548 (protein)
chain: MANQEIRYSEETPKTITSVWTKGVTPPTDFIKNEDVLHAPYIANQGWYDITKTFNGKDDLLCGAATAGNMLHWWFDQNKEEIENYLKKHPEKQKINFNGEQMFDVKEAIDTKDSQTDSALFEYFKDKAFPYLSTKHLGVFPDHVIDMFINGYRLSLTNHGPTPVKRGTKDPRGGIFDAVFTRGDQTKLLTARHDFKEKTLNEISDLIKQELTEGKALGLSHTYANVRINHVINLWGADFNSEGNLEAIYVTDSDSNASIGMKKYYVGVNAAGKVAISAKEIEGDNIGAQVLGLFTLSTGQDIWEQTNLEHHHHHH
B5: PRT-593 (protein)
chain: B4 chain with K14S, K32Q, E81Q, S114H, T186S, A191S, S241A, A270S, E304N
B6: PRT-560 (protein)
chain: B4 chain with K32Y, E81Q, N84R, G167Q, T186S, A191S, N201K, N240D, S241A, A270S
B7: PRT-591 (protein)
chain: B4 chain with K14S, K32Q, E81Q, E83K, T186S, A191S, S241A, A270S, E304N
B8: PRT-48 (protein)
chain: MANQEIRYSEVTPYHVTSVWTKGVTPPANFTQGEDVFHAPYKANQGWYDINKTFNGGDDLLCGAATAGNMLHWWFDQNKDYIDRYLEEHPEKQKINFNGEQMFDVKEAIDTKNNQTDSKLFEYFKEKAFPYLSTKHLGVFPDRVIDMFINGYRLSLTNHGPTPVKEGSKDPRGGFFDDVFTRGDQSKLLTSRHDFKEKNLKEISDLIKKELKEGKALGLSHTYANVRINHVINLWGADFDSNGNLKAIYVTDSDSNASVGMKKYRVGVNSAGKVAISAKEIKEDNIGAQVLGLFTLSTGQDSWNQTN
B9: PRT-52 (protein)
chain: B8 chain with K42V, D80E, E87K, N114S, R143L, D178A, L200Y, K201N, R265F
B10: PRT-50 (protein)
chain: MANQEIRYSEVTPYHVTSVWTKGVTPPANFTQGEDVFHAPYVANQGWYDINKTFNGKDDLLCGAATAGNMLHWWFDQNKEQIERYLKEHPEKGKINFNGEQMFDVKEAIDTKNNQTDSKLFEYFKEKAFPYLSTKHLGVFPDRVLDMFINGYRLSLTNHGPTPVKEGSKDPRGGFFDDVFGRGDQSKLLTSRHDFKEKNLEEISDLIKKELTEGKALGLSHTYANVRINHVINLWGADFDSNGNLKAIYVTDSDSNASVGMKKYFVGVNSAGKVAISAKEIKEDNIGAQVLGLFTLSTGQDSWNQTN
B11: PRT-42 (protein)
chain: MANQEIRYSEVTPYHVTSVWTKGVTPPANFTQGEDVFHAPYVANQGWYDITKTFNGKDDLLCGAATAGNMLHWWFDQNKDQIDRYLEEHPEKQKINFNGEQMFDVKEAIDTKNDQLDSKLFEYFKEKAFPYLSTKHLGVFPDLVIDMFINGYRLSLTNHGPTPVKEGSKDPRGGFFDAVFTRGDQSKLLTSRHDFKEKNLKEISDLIKKELTEGKALGLSHTYANVRINHVINLWGADFDSNGNLKAIYVTDSDSNASIGMKKYFVGVNSAGKVAISAKEIKEDNIGAQVLGLFTLSTGQDSWNQTN
B12: PRT-54 (protein)
chain: B11 chain with D114H
B13: PRT-51 (protein)
chain: B11 chain with T51N, Q81Y, E87K, E88K, Q93A, I145L, A178D, K201E, S241E, K263R
B14: PRT-53 (protein)
chain: B11 chain with F175I
B15: PRT-44 (protein)
chain: B11 chain with K57G, D114S, L116T, I145L, A178D
B16: PRT-49 (protein)
chain: B11 chain with Q81Y, Q93A, L116T, L143H, A178D, T181G, I259V
B17: PRT-45 (protein)
chain: B11 chain with K57G, D80E, D114S, L116T, I145L, F175I, K201E
B18: PRT-43 (protein)
chain: B11 chain with L116T, F175I, F195L
B19: PRT-47 (protein)
chain: B11 chain with T51N, K57G, E87K, Q93A, L116T, D117N, I145L, I259V
B20: PRT-46 (protein)
chain: B11 chain with Q93A, I145L, K263R
B21: PRT-3 (protein)
chain: MRNATEAYAKEVPHQITSVWTKGVTPLTPEQFRYNNEDVIHAPYLAHQGWYDITKAFDGKDNLLCGAATAGNMLHWWFDQNKTEIEAYLSKHPEKQKIIFNNQELFDLKAAIDTKDSQTNSQLFNYFRDKAFPNLSARQLGVMPDLVLDMFINGYYLNVFKTQSTDVNRPYQDKDKRGGIFDAVFTRGDQTTLLTARHDLKNKGLNDISTIIKQELTEGRALALSHTYANVSISHVINLWGADFNAEGNLEAIYVTDSDANASIGMKKYFVGINAHGHVAISAKKIEGENIGAQVLGLFTLSSGKDIWQKLS

molecular target: pooled human IgG

First: B1
Second: B2
The Enzyme Activity Endpoint Assay: Fab′2 of the first is higher: 6 ng/µL for the first, 0 ng/µL for the second.

Going from B3 to B4, the Enzyme Activity Endpoint Assay: Fab′2 rises from 723 ng/µL to 727 ng/µL.

Compared with B5, B6 is lower in Enzyme Activity Endpoint Assay: Fab′2: 797 ng/µL for the first, 210 ng/µL for the second.

B7 and B8 are the same in Enzyme Activity Endpoint Assay: Fab′2: 0 ng/µL for the first, 0 ng/µL for the second.

B9 and B10 are the same in Enzyme Activity Endpoint Assay: Fab′2: 0 ng/µL for the first, 0 ng/µL for the second.

B11 and B12 are the same in Enzyme Activity Endpoint Assay: Fab′2: 0 ng/µL for the first, 0 ng/µL for the second.

Going from B13 to B14, the Enzyme Activity Endpoint Assay: Fab′2 rises from 0 ng/µL to 7 ng/µL.

First: B15
Second: B16
The Enzyme Activity Endpoint Assay: Fab′2 of the first is lower: 3 ng/µL for the first, 30 ng/µL for the second.

First: B17
Second: B18
The Enzyme Activity Endpoint Assay: Fab′2 of the first is lower: 3 ng/µL for the first, 23 ng/µL for the second.

Compared with B19, B20 is higher in Enzyme Activity Endpoint Assay: Fab′2: 0 ng/µL for the first, 20 ng/µL for the second.

Protein B21 has an Enzyme Activity Endpoint Assay: Fab′2 of 14 ng/µL.

B1 and B2 are the same in Enzyme Activity Endpoint Assay: Fc: 0 ng/µL for the first, 0 ng/µL for the second.

Compared with B3, B4 is higher in Enzyme Activity Endpoint Assay: Fc: 294 ng/µL for the first, 458 ng/µL for the second.

Going from B5 to B6, the Enzyme Activity Endpoint Assay: Fc falls from 396 ng/µL to 233 ng/µL.

Going from B7 to B8, the Enzyme Activity Endpoint Assay: Fc falls from 34 ng/µL to 5 ng/µL.

Going from B9 to B10, the Enzyme Activity Endpoint Assay: Fc falls from 12 ng/µL to 5 ng/µL.

First: B11
Second: B12
The Enzyme Activity Endpoint Assay: Fc of the first is higher: 54 ng/µL for the first, 24 ng/µL for the second.

Compared with B13, B14 is higher in Enzyme Activity Endpoint Assay: Fc: 11 ng/µL for the first, 84 ng/µL for the second.

Compared with B15, B16 is higher in Enzyme Activity Endpoint Assay: Fc: 78 ng/µL for the first, 96 ng/µL for the second.

Going from B17 to B18, the Enzyme Activity Endpoint Assay: Fc rises from 76 ng/µL to 89 ng/µL.

First: B19
Second: B20
The Enzyme Activity Endpoint Assay: Fc of the first is lower: 5 ng/µL for the first, 101 ng/µL for the second.

B21 showed an Enzyme Activity Endpoint Assay: Fc of 72 ng/µL.

Compared with B1, B2 is lower in Enzyme Activity Endpoint Assay: IgG: 1530 ng/µL for the first, 1000 ng/µL for the second.

B3 and B4 are the same in Enzyme Activity Endpoint Assay: IgG: 0 ng/µL for the first, 0 ng/µL for the second.

Compared with B5, B6 is higher in Enzyme Activity Endpoint Assay: IgG: 0 ng/µL for the first, 41 ng/µL for the second.

Going from B7 to B8, the Enzyme Activity Endpoint Assay: IgG falls from 671 ng/µL to 141 ng/µL.

First: B9
Second: B10
The Enzyme Activity Endpoint Assay: IgG of the first is lower: 122 ng/µL for the first, 135 ng/µL for the second.

Compared with B11, B12 is higher in Enzyme Activity Endpoint Assay: IgG: 26 ng/µL for the first, 110 ng/µL for the second.

First: B13
Second: B14
The Enzyme Activity Endpoint Assay: IgG of the first is higher: 118 ng/µL for the first, 9 ng/µL for the second.

First: B15
Second: B16
The Enzyme Activity Endpoint Assay: IgG of the first is lower: 14 ng/µL for the first, 18 ng/µL for the second.

Compared with B17, B18 is higher in Enzyme Activity Endpoint Assay: IgG: 8 ng/µL for the first, 13 ng/µL for the second.

Compared with B19, B20 is lower in Enzyme Activity Endpoint Assay: IgG: 132 ng/µL for the first, 15 ng/µL for the second.

Work on B21 yielded an Enzyme Activity Endpoint Assay: IgG of 11 ng/µL.

B1 and B2 are the same in Enzyme Activity Endpoint Assay: scIgG: 0 ng/µL for the first, 0 ng/µL for the second.

B3 and B4 are the same in Enzyme Activity Endpoint Assay: scIgG: 0 ng/µL for the first, 0 ng/µL for the second.

Compared with B5, B6 is higher in Enzyme Activity Endpoint Assay: scIgG: 0 ng/µL for the first, 312 ng/µL for the second.

B7 and B8 are the same in Enzyme Activity Endpoint Assay: scIgG: 0 ng/µL for the first, 0 ng/µL for the second.

B9 and B10 are the same in Enzyme Activity Endpoint Assay: scIgG: 0 ng/µL for the first, 0 ng/µL for the second.

Compared with B11, B12 is lower in Enzyme Activity Endpoint Assay: scIgG: 53 ng/µL for the first, 10 ng/µL for the second.

First: B13
Second: B14
The Enzyme Activity Endpoint Assay: scIgG of the first is lower: 0 ng/µL for the first, 61 ng/µL for the second.

First: B15
Second: B16
The Enzyme Activity Endpoint Assay: scIgG of the first is higher: 60 ng/µL for the first, 40 ng/µL for the second.

Going from B17 to B18, the Enzyme Activity Endpoint Assay: scIgG falls from 67 ng/µL to 32 ng/µL.

Going from B19 to B20, the Enzyme Activity Endpoint Assay: scIgG rises from 0 ng/µL to 39 ng/µL.

Protein B21 has an Enzyme Activity Endpoint Assay: scIgG of 33 ng/µL.
